Test results reported in the supplement of paper PMC9112550, “Optimization of the antimicrobial peptide Bac7 by deep mutational scanning” (BMC Biology, 2022).

Test system: Escherichia coli TOP10
Assay: shrunken log2 fold change of peptide-encoding DNA abundance (4.5 h post-induction vs induction); higher = less antimicrobial activity (less host growth inhibition)
Settings: time post-induction: 4.5 h; library: site-saturation at positions 5, 18, 19, 20
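Also: peptides expressed intracellularly from a pBAD plasmid library in pooled LB shake-flask culture, induced with 0.3% L-arabinose, DNA abundance read by NGS, three biological replicates, DESeq2 with apeglm shrinkage.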

Sequence	shrunken log2 fold change
RRIRGRPPRLPRPRPRPFAWPRP	0.573
RRIRGRPPRLPRPRPRPYCRPRP	-0.237
RRIRWRPPRLPRPRPRPSWSPRP	0.862
RRIRSRPPRLPRPRPRPTQPPRP	0.215
RRIRDRPPRLPRPRPRPGVYPRP	0.0379
RRIRWRPPRLPRPRPRPANMPRP	-0.0899
RRIRQRPPRLPRPRPRPSFFPRP	-0.287
RRIRQRPPRLPRPRPRPAMCPRP	0.171
RRIRHRPPRLPRPRPRPPYNPRP	-0.642
RRIRTRPPRLPRPRPRPTRQPRP	0.112
RRIRYRPPRLPRPRPRPTDWPRP	-0.314
RRIRVRPPRLPRPRPRPCTHPRP	0.0145
RRIRCRPPRLPRPRPRPPQCPRP	0.182
RRIRLRPPRLPRPRPRPLYRPRP	-0.0861
RRIRFRPPRLPRPRPRPETGPRP	0.0907
RRIRNRPPRLPRPRPRPNDIPRP	-0.418
RRIRMRPPRLPRPRPRPVCSPRP	-0.0933
RRIRTRPPRLPRPRPRPLWAPRP	0.277
RRIRSRPPRLPRPRPRPCAEPRP	0.0817
RRIRHRPPRLPRPRPRPRAEPRP	0.12
RRIRSRPPRLPRPRPRPGRGPRP	0.715
RRIRERPPRLPRPRPRPKHKPRP	-0.344
RRIRYRPPRLPRPRPRPKTGPRP	-0.243
RRIRLRPPRLPRPRPRPYQWPRP	-0.241
RRIRTRPPRLPRPRPRPSLVPRP	0.0852

Sequence	shrunken log2 fold change
RRIRCRPPRLPRPRPRPDWWPRP	0.256
RRIRVRPPRLPRPRPRPLCTPRP	-0.0347
RRIRQRPPRLPRPRPRPMQMPRP	0.0303
RRIRQRPPRLPRPRPRPYHNPRP	-0.945
RRIRCRPPRLPRPRPRPSQFPRP	-0.787
RRIRTRPPRLPRPRPRPCLKPRP	-0.0017
RRIRARPPRLPRPRPRPDQGPRP	0.261
RRIRMRPPRLPRPRPRPLVFPRP	0.102
RRIRYRPPRLPRPRPRPISQPRP	-0.299
RRIRYRPPRLPRPRPRPNQSPRP	-0.268
RRIRERPPRLPRPRPRPDRQPRP	-0.0719
RRIRDRPPRLPRPRPRPVAHPRP	-0.0445
RRIRPRPPRLPRPRPRPMTCPRP	-0.251
RRIRWRPPRLPRPRPRPQYHPRP	-0.505
RRIRYRPPRLPRPRPRPGWDPRP	-0.0163
RRIRWRPPRLPRPRPRPKITPRP	0.0282
RRIRQRPPRLPRPRPRPGYTPRP	-0.912
RRIRPRPPRLPRPRPRPWWWPRP	-0.00448
RRIRSRPPRLPRPRPRPFSKPRP	-0.0877
RRIRYRPPRLPRPRPRPSHHPRP	-1.2
RRIRGRPPRLPRPRPRPWTSPRP	0.0439
RRIRTRPPRLPRPRPRPCHKPRP	0.014
RRIRSRPPRLPRPRPRPAKKPRP	0.0292
RRIRPRPPRLPRPRPRPSIFPRP	-0.284
RRIRSRPPRLPRPRPRPKYLPRP	-0.756

Sequence	shrunken log2 fold change
RRIRNRPPRLPRPRPRPSFCPRP	-0.548
RRIRSRPPRLPRPRPRPVCEPRP	0.369
RRIRDRPPRLPRPRPRPPHKPRP	0.0115
RRIRMRPPRLPRPRPRPIFEPRP	0.166
RRIRIRPPRLPRPRPRPWDKPRP	-0.0749
RRIRLRPPRLPRPRPRPHEMPRP	-0.377
RRIRERPPRLPRPRPRPMCRPRP	0.03
RRIRRRPPRLPRPRPRPAKRPRP	0.863
RRIRGRPPRLPRPRPRPNEWPRP	1.8
RRIRQRPPRLPRPRPRPNPSPRP	-0.042
RRIRARPPRLPRPRPRPKTMPRP	0.352
RRIRERPPRLPRPRPRPDWQPRP	-0.552
RRIRTRPPRLPRPRPRPAGSPRP	-0.000597
RRIRGRPPRLPRPRPRPTQCPRP	0.222
RRIRERPPRLPRPRPRPFSGPRP	-0.55
RRIRHRPPRLPRPRPRPATFPRP	-0.662
RRIRFRPPRLPRPRPRPQFKPRP	-0.217
RRIRWRPPRLPRPRPRPLPSPRP	0.515
RRIRWRPPRLPRPRPRPVWRPRP	0.488
RRIRPRPPRLPRPRPRPVLGPRP	0.122
RRIRYRPPRLPRPRPRPTYSPRP	-0.443
RRIRSRPPRLPRPRPRPDGRPRP	0.0253
RRIRPRPPRLPRPRPRPTYDPRP	-0.212
RRIRCRPPRLPRPRPRPVRYPRP	0.0829
RRIRMRPPRLPRPRPRPHEGPRP	0.443

Sequence	shrunken log2 fold change
RRIRARPPRLPRPRPRPSVMPRP	0.00738
RRIRWRPPRLPRPRPRPARGPRP	0.687
RRIRRRPPRLPRPRPRPSENPRP	-0.0437
RRIRLRPPRLPRPRPRPWIEPRP	-0.00922
RRIRPRPPRLPRPRPRPCGRPRP	0.302
RRIRWRPPRLPRPRPRPKMNPRP	0.0146
RRIRNRPPRLPRPRPRPSFKPRP	-0.25
RRIRSRPPRLPRPRPRPTWQPRP	0.0157
RRIRVRPPRLPRPRPRPVNQPRP	-0.0283
RRIRRRPPRLPRPRPRPCNTPRP	-0.295
RRIRARPPRLPRPRPRPARLPRP	0.582
RRIRMRPPRLPRPRPRPAYQPRP	-0.233
RRIRERPPRLPRPRPRPFNWPRP	0.00763
RRIRTRPPRLPRPRPRPWLRPRP	-0.161
RRIRQRPPRLPRPRPRPEFNPRP	-0.0823
RRIRNRPPRLPRPRPRPTGEPRP	0.394
RRIRDRPPRLPRPRPRPGDPPRP	0.293
RRIRSRPPRLPRPRPRPAISPRP	0.153
RRIRRRPPRLPRPRPRPGVGPRP	0.59
RRIRHRPPRLPRPRPRPSPLPRP	-0.223
RRIRHRPPRLPRPRPRPSFCPRP	-0.507
RRIRSRPPRLPRPRPRPYYFPRP	-0.664
RRIRGRPPRLPRPRPRPPHGPRP	0.903
RRIRMRPPRLPRPRPRPQGDPRP	-0.477
RRIRIRPPRLPRPRPRPIILPRP	-0.646

Sequence	shrunken log2 fold change
RRIRARPPRLPRPRPRPSPPPRP	0.67
RRIRIRPPRLPRPRPRPSPKPRP	-0.178
RRIRNRPPRLPRPRPRPFQCPRP	-0.0493
RRIRHRPPRLPRPRPRPEMYPRP	0.000706
RRIRTRPPRLPRPRPRPNIIPRP	-1.01
RRIRFRPPRLPRPRPRPHHAPRP	-0.291
RRIRHRPPRLPRPRPRPSWRPRP	-0.0493
RRIRLRPPRLPRPRPRPRSWPRP	0.297
RRIRLRPPRLPRPRPRPPFQPRP	0.0582
RRIRKRPPRLPRPRPRPSCSPRP	-0.0597
RRIRLRPPRLPRPRPRPSVEPRP	0.0961
RRIRGRPPRLPRPRPRPEPDPRP	1.27
RRIRFRPPRLPRPRPRPSTEPRP	-0.112
RRIRFRPPRLPRPRPRPVKWPRP	0.0401
RRIRQRPPRLPRPRPRPHISPRP	-0.312
RRIRTRPPRLPRPRPRPIIYPRP	-0.216
RRIRIRPPRLPRPRPRPWLPPRP	-0.325
RRIRGRPPRLPRPRPRPCNHPRP	-0.402
RRIRCRPPRLPRPRPRPDIMPRP	-0.0409
RRIRVRPPRLPRPRPRPPMTPRP	0.209
RRIRQRPPRLPRPRPRPIAPPRP	4.03
RRIRWRPPRLPRPRPRPYQVPRP	-0.268
RRIRHRPPRLPRPRPRPSVWPRP	-0.151
RRIRFRPPRLPRPRPRPMRSPRP	0.904
RRIRDRPPRLPRPRPRPMRVPRP	0.304

Sequence	shrunken log2 fold change
RRIRQRPPRLPRPRPRPEMTPRP	0.0231
RRIRGRPPRLPRPRPRPTEVPRP	0.311
RRIRKRPPRLPRPRPRPPNQPRP	0.17
RRIRSRPPRLPRPRPRPWMWPRP	-0.0985
RRIRKRPPRLPRPRPRPNNNPRP	-0.255
RRIRDRPPRLPRPRPRPDMFPRP	0.0667
RRIRRRPPRLPRPRPRPSWLPRP	0.202
RRIRPRPPRLPRPRPRPPYHPRP	-0.226
RRIRGRPPRLPRPRPRPCKQPRP	0.0431
RRIRKRPPRLPRPRPRPTNAPRP	0.733
RRIRFRPPRLPRPRPRPMRHPRP	0.0162
RRIRFRPPRLPRPRPRPRALPRP	0.148
RRIRQRPPRLPRPRPRPWPYPRP	0.0155
RRIRMRPPRLPRPRPRPGIVPRP	0.332
RRIRVRPPRLPRPRPRPLIYPRP	-0.632
RRIRQRPPRLPRPRPRPDFLPRP	-0.338
RRIRWRPPRLPRPRPRPGYKPRP	-0.255
RRIRHRPPRLPRPRPRPNWMPRP	0.00348
RRIRGRPPRLPRPRPRPKAFPRP	0.157
RRIRARPPRLPRPRPRPLTRPRP	0.284
RRIRIRPPRLPRPRPRPGSMPRP	-0.501
RRIRCRPPRLPRPRPRPEEAPRP	0.642
RRIRWRPPRLPRPRPRPMWHPRP	-0.139
RRIRMRPPRLPRPRPRPVMYPRP	-0.0366
RRIRSRPPRLPRPRPRPVMTPRP	-0.0963
